Results as given in article PMC10213376 (Redox Biology, 2023).

Target: the molecule itself
Assay: crystal structure

B1: Human catalase (CAT) (enzyme)
chain: MADSRDPASDQMQHWKEQRAAQKADVLTTGAGNPVGDKLNVITVGPRGPLLVQDVVFTDEMAHFDRERIPERVVHAKGAGAFGYFEVTHDITKYSKAKVFEHIGKKTPIAVRFSTVAGESGSADTVRDPRGFAVKFYTEDGNWDLVGNNTPIFFIRDPILFPSFIHSQKRNPQTHLKDPDMVWDFWSLRPESLHQVSFLFSDRGIPDGHRHMNGYGSHTFKLVNANGEAVYCKFHYKTDQGIKNLSVEDAARLSQEDPDYGIRDLFNAIATGKYPSWTFYIQVMTFNQAETFPFNPFDLTKVWPHKDYPLIPVGKLVLNRNPVNYFAEVEQIAFDPSNMPPGIEASPDKMLQGRLFAYPDTHRHRLGPNYLHIPVNCPYRARVANYQRDGPMCMQDNQGGAPNYYPNSFGAPEQQPSALEHSIQYSGEVRRFNTANDDNVTQVRAFYVNVLNEEQRKRLCENIAGHLKDAQIFIQKKAVKNFTEVHPDYGSHIQALLDKYNAEKPKNAIHTFVQSGSHLAAREKANL
- stoichiometry N: 4
